Data reported in patent US20170210813A1 (Regeneron, published 2017).

Key:
human PDGF-BB = human PDGF-BB (human, UniProt P01127 82-190); assay: SPR (Biacore 3000), 30 nM ligand over hPDGFRb.mFc captured by anti-mouse Fc, no antibody
From the text: Real-time binding response was monitored throughout the course of the assay and was compared to the binding response measured when PDGF ligand was applied over the derivatized captured control surface in the absence of captured antibody.

hPDGFRb.mmh [1] = biological target: T1, hPDGFRb.mmh (human, UniProt P09619 33-531); assay: Octet BLI cross-competition, 25 C; hPDGFRb.mmh on anti-Penta-His tips pre-saturated with mAb-1 H4H3374N (row 3)
T1 construct: Soluble monomeric construct; also called soluble human PDGFR-beta.mmh
Experimental: (§1) A cross-competition assay was conducted to assess the ability of select antibodies to compete with one another for binding to human PDGFR-beta. […] Each PDGFR-beta.mmh-coated sensor tip was saturated for 5 min with a first anti-PDGFR-beta antibody (Mab #1; 50 μg/mL). Next, each sensor tip was saturated with a solution of a second anti-PDGFR-beta antibody (Mab #2). The real time response of Mab #2 binding to PDGR-beta.mmh pre-complexed with Mab #1 was then monitored. All assays were performed at 25° C. with a flow rate of 1000 rpm on an Octet RED384 biosensor in Octet HBST buffer according to manufacturer's instructions (ForteBio Corp., Menlo Park, Calif.). Results are illustrated in FIG. 2.

hPDGFRb.mmh [2] = biological target: T1, hPDGFRb.mmh; assay: Octet BLI cross-competition, 25 C; hPDGFRb.mmh on anti-Penta-His tips pre-saturated with mAb-1 H4H3103S (row 4)
Experimental: as §1

[3] = biological target: T2, full length human PDGFR-beta on HEK293 cells (human, UniProt P09619 33-1106); assay: cell-based or functional assay
[4] = biological target: T3, Macaca fascicularis PDGFRb.mmh (Macaca fascicularis); assay: SPR, mAb captured, 25 C
T3 construct: Soluble monomeric construct; also called mfPDGFRb.mmh
T3 chain: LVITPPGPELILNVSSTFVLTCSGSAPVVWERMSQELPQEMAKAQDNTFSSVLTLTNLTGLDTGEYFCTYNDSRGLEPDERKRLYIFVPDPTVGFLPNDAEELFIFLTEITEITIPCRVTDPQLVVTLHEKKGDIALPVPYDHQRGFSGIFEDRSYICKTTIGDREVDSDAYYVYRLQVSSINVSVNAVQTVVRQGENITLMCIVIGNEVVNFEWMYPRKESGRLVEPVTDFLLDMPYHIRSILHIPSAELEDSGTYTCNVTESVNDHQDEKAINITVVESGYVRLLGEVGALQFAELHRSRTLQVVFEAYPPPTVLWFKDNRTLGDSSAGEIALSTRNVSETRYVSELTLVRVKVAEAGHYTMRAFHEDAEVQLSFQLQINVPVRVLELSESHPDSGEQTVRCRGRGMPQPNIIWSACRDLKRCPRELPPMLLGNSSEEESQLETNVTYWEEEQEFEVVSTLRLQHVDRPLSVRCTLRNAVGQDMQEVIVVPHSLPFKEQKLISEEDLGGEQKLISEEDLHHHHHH
Experimental: (§2) Antibodies, expressed as either mouse Fc (prefix H1M; H2M) or human Fc (prefix H4H), were captured on their respective anti-Fc sensor surfaces (Mab capture format). […] Kinetic association (kₐ) and dissociation (kd) rate constants were determined by processing and fitting the data to a 1:1 binding model using Scrubber 2.0 curve fitting software.

hPDGFRb.mmh [5] = biological target: T1, hPDGFRb.mmh; assay: SPR, mAb captured, 25 C
Experimental: as §2

human PDGFRb.hFc [6] = biological target: T4, human PDGFRb.hFc (human); assay: SPR, mAb captured, 25 C
T4 construct: Soluble dimeric construct with human Fc; also called hPDGFRb.hFc
Experimental: as §2

[7] = biological target: T2, full length human PDGFR-beta on HEK293 …; assay: cell-based or functional assay; remark: listed apart in the source
hPDGFRb.mmh [8] = biological target: T1, hPDGFRb.mmh; assay: Octet BLI cross-competition, 25 C; hPDGFRb.mmh on anti-Penta-His tips pre-saturated with mAb-1 H4H3094P (row 5)
Experimental: as §1

hPDGFRb.mmh [9] = biological target: T1, hPDGFRb.mmh; assay: Octet BLI cross-competition, 25 C; hPDGFRb.mmh on anti-Penta-His tips pre-saturated with mAb-1 H4H3099S (row 6)
Experimental: as §1

[10] = biological target: T3, Macaca fascicularis PDGFRb.mmh; assay: SPR, mAb captured, 37 C
Experimental: as §2

hPDGFRb.mmh [11] = biological target: T1, hPDGFRb.mmh; assay: SPR, mAb captured, 37 C
Experimental: as §2

human PDGFRb.hFc [12] = biological target: T4, human PDGFRb.hFc; assay: SPR, mAb captured, 37 C
Experimental: as §2

hPDGFRb.mmh [13] = biological target: T1, hPDGFRb.mmh; assay: Octet BLI cross-competition, 25 C; hPDGFRb.mmh on anti-Penta-His tips pre-saturated with mAb-1 H4H3305N (row 8)
Experimental: as §1

hPDGFRb.mmh [14] = biological target: T1, hPDGFRb.mmh; assay: blocking ELISA, biot-hPDGFRb.mmh to coated PDGF-BB
hPDGFRb.mmh [15] = biological target: T1, hPDGFRb.mmh; assay: Octet BLI cross-competition, 25 C; hPDGFRb.mmh on anti-Penta-His tips pre-saturated with mAb-1 H4H3310N (row 9)
Experimental: as §1

hPDGFRb.mmh [16] = biological target: T1, hPDGFRb.mmh; assay: Octet BLI cross-competition, 25 C; hPDGFRb.mmh on anti-Penta-His tips pre-saturated with mAb-1 H4H3107S (row 7)
Experimental: as §1

Sequence of human PDGF-BB (P01127 82-190 limits assumed): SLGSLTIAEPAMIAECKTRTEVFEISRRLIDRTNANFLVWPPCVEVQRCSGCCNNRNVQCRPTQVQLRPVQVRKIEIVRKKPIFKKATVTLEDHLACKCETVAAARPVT

B1: human PDGFRb.mFc (Fc fusion)
chain: LVVTPPGPELVLNVSSTFVLTCSGSAPVVWERMSQEPPQEMAKAQDGTFSSVLTLTNLTGLDTGEYFCTHNDSRGLETDERKRLYIFVPDPTVGFLPNDAEELFIFLTEITEITIPCRVTDPQLVVTLHEKKGDVALPVPYDHQRGFFGIFEDRSYICKTTIGDREVDSDAYYVYRLQVSSINVSVNAVQTVVRQGENITLMCIVIGNEVVNFEWTYPRKESGRLVEPVTDFLLDMPYHIRSILHIPSAELEDSGTYTCNVTESVNDHQDEKAINITVVESGYVRLLGEVGTLQFAELHRSRTLQVVFEAYPPPTVLWFKDNRTLGDSSAGEIALSTRNVSETRYVSELTLVRVKVAEAGHYTMRAFHEDAEVQLSFQLQINVPVRVLELSESHPDSGEQTVRCRGRGMPQPNIIWSACRDLKRCPRELPPTLLGNSSEEESQLETNVTYWEEEQEFEVVSTLRLQHVDRPLSVRCTLRNAVGQDTQEVIVVPHSLPFKEPRGPTIKPCPPCKCPAPNLLGGPSVFIFPPKIKDVLMISLSPIVTCVVVDVSEDDPDVQISWFVNNVEVHTAQTQTHREDYNSTLRVVSALPIQHQDWMSGKEFKCKVNNKDLPAPIERTISKPKGSVRAPQVYVLPPPEEEMTKKQVTLTCMVTDFMPEDIYVEWTNNGKTELNYKNTEPVLDSDGSYFMYSKLRVEKKNWVERNSYSCSVVHEGLHNHHTTKSFSRTPGK
notes: Soluble dimeric construct with mouse Fc; also called hPDGFRb.mFc; soluble human PDGFR-beta.mFc
- binding result (human PDGF-BB): binds

B2: H4H3365N (antibody, human IgG4, V domains shown)
VH: EVQLVESGGGLVQPGRSLRLSCAASGFTFDDFAMHWVRQVPGKGLEWVSGISWSSGTIGYVGSVKGRFTISRDNAKNSLYLQMNSLRAEDTAMYFCTKDKAAFHDAFDIWGQGTMVTVSS
VL: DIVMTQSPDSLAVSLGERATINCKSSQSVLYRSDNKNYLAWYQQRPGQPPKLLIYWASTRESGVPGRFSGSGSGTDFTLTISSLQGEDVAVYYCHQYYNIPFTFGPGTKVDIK
notes: human IgG4 Fc (H4H prefix)
- Response of mAb-2 Binding to hPDGFRβ.mmh Pre-Complexed with mAb-1 (nm) (hPDGFRb.mmh [1]): 0.01 nm
- Response of mAb-2 Binding to hPDGFRβ.mmh Pre-Complexed with mAb-1 (nm) (hPDGFRb.mmh [2]): 0.01 nm
- IC50, blocking PDGF-BB (250 pM) activation, SRE-luciferase [3]: 2.3e-10 M
- IC50, blocking PDGF-DD (400 pM) activation, SRE-luciferase [3]: 3.7e-10 M
- Kd [4]: 1.7 nM
- koff [4]: 0.00015 s⁻¹
- kon [4]: 88300 M⁻¹ s⁻¹
- t1/2 [4]: 1.28 h
- Kd (hPDGFRb.mmh [5]): 1.66 nM
- koff (hPDGFRb.mmh [5]): 0.000142 s⁻¹
- kon (hPDGFRb.mmh [5]): 85300 M⁻¹ s⁻¹
- t1/2 (hPDGFRb.mmh [5]): 1.35 h
- Kd (human PDGFRb.hFc [6]): 0.244 nM
- koff (human PDGFRb.hFc [6]): 4.55e-05 s⁻¹
- kon (human PDGFRb.hFc [6]): 184000 M⁻¹ s⁻¹
- t1/2 (human PDGFRb.hFc [6]): 4.23 h
- Percent Internalization (Relative to Control I) [7]: 65%
- Response of mAb-2 Binding to hPDGFRβ.mmh Pre-Complexed with mAb-1 (nm) (hPDGFRb.mmh [8]): 0 nm
- Response of mAb-2 Binding to hPDGFRβ.mmh Pre-Complexed with mAb-1 (nm) (hPDGFRb.mmh [9]): 0.29 nm
- Kd [10]: 5.06 nM
- koff [10]: 0.00101 s⁻¹
- kon [10]: 200000 M⁻¹ s⁻¹
- t1/2 [10]: 0.183 h
- Kd (hPDGFRb.mmh [11]): 5.38 nM
- koff (hPDGFRb.mmh [11]): 0.00102 s⁻¹
- kon (hPDGFRb.mmh [11]): 190000 M⁻¹ s⁻¹
- t1/2 (hPDGFRb.mmh [11]): 0.183 h
- Kd (human PDGFRb.hFc [12]): 1.05 nM
- koff (human PDGFRb.hFc [12]): 0.000264 s⁻¹
- kon (human PDGFRb.hFc [12]): 250000 M⁻¹ s⁻¹
- t1/2 (human PDGFRb.hFc [12]): 0.733 h
- Response of mAb-2 Binding to hPDGFRβ.mmh Pre-Complexed with mAb-1 (nm) (hPDGFRb.mmh [13]): 0.28 nm
- % Maximum Blocking (hPDGFRb.mmh [14]): 87%
- IC50 (hPDGFRb.mmh [14]): 0.37 nM
- Response of mAb-2 Binding to hPDGFRβ.mmh Pre-Complexed with mAb-1 (nm) (hPDGFRb.mmh [15]): 0.28 nm
- Response of mAb-2 Binding to hPDGFRβ.mmh Pre-Complexed with mAb-1 (nm) (hPDGFRb.mmh [16]): 0.26 nm
